The values below come from US8815802 (Novo Nordisk, dated 2014).

For orientation: IC50 means the concentration that inhibits the measured activity by half.

B1: N^ε26-[2-(2-{2-[2-(2-{2-[(S)-4-Carboxy-4-(17-carboxyheptadecanoylamino)butyrylamino]ethoxy}ethoxy)acetylamino]ethoxy}ethoxy)acetyl][Aib^8,His^31,Gln^34]GLP-1(7- … (peptide)
peptide: HXEGTFTSDVSSYLEGQAAKEFIAHLVQGRG
modifications: Aib8; Lys26 N-epsilon-acylated (side chain as in name); GLP-1(7-37) numbering
B2: N^ε26-2,3-bis[[2-[2-[2-[[2-[2-[2-[[(4S)-4-carboxy-4-(13-carboxytridecanoylamino)butanoyl]amino]ethoxy]ethoxy]acetyl]amino]ethoxy]ethoxy]acetyl]amino]propanoyl-[ … (peptide)
peptide: B1 peptide
modifications: not fully specified; Aib8; Lys26 N-epsilon-acylated (branched side chain as in name); GLP-1(7-37) numbering
B3: N^ε26-4-[16-(1H-tetrazol-5-yl)hexadecanoylsulfamoyl]butanoyl-[His^31,Gln^34]-GLP-1-(7-37)-peptide (peptide)
peptide: HAEGTFTSDVSSYLEGQAAK(X1)EFIAHLVQGRG
B4: N^ε26-[2-[2-[2-[[2-[2-[2-[[(4S)-4-carboxy-4-(15-carboxypentadecanoylamino)butanoyl]amino]ethoxy]ethoxy]acetyl]amino]ethoxy]ethoxy]acetyl][His^31,Gln^34]-GLP-1-( … (peptide)
peptide: HAEGTFTSDVSSYLEGQAAK([AEEA-AEEA-γGlu-C16 diacid])EFIAHLVQGRG
B5: N^ε36-[2-[2-[2-(17-carboxyheptadecanoylamino)ethoxy]ethoxy]acetyl]-[Aib^8,Glu^30,His^31,Gln^34,Lys^36]-GLP-1-(7-37)-peptidyl-Glu amide (peptide)
peptide: HXEGTFTSDVSSYLEGQAAKEFIEHLVQGKGE
HELM: PEPTIDE1{H.[Aib].E.G.T.F.T.S.D.V.S.S.Y.L.E.G.Q.A.A.K.E.F.I.E.H.L.V.Q.G.K.G.E.[am]}|PEPTIDE2{[O=C(O)CCCCCCCCCCCCCCCCC(=O)[*:2]].[O=C(COCCOCCN[*:1])[*:2]]}$PEPTIDE1,PEPTIDE2,30:R3-2:R2$$$V2.0; N-terminus assumed
SMILES: CC[C@H](C)[C@H](NC(=O)[C@H](Cc1ccccc1)NC(=O)[C@H](CCC(=O)O)NC(=O)[C@H](CCCCN)NC(=O)[C@H](C)NC(=O)[C@H](C)NC(=O)[C@H](CCC(N)=O)NC(=O)CNC(=O)[C@H](CCC(=O)O)NC(=O)[C@H](CC(C)C)NC(=O)[C@H](Cc1ccc(O)cc1)NC(=O)[C@H](CO)NC(=O)[C@H](CO)NC(=O)[C@@H](NC(=O)[C@H](CC(=O)O)NC(=O)[C@H](CO)NC(=O)[C@@H](NC(=O)[C@H](Cc1ccccc1)NC(=O)[C@@H](NC(=O)CNC(=O)[C@H](CCC(=O)O)NC(=O)C(C)(C)NC(=O)[C@@H](N)Cc1c[nH]cn1)[C@@H](C)O)[C@@H](C)O)C(C)C)C(=O)N[C@@H](CCC(=O)O)C(=O)N[C@@H](Cc1c[nH]cn1)C(=O)N[C@@H](CC(C)C)C(=O)N[C@H](C(=O)N[C@@H](CCC(N)=O)C(=O)NCC(=O)N[C@@H](CCCCNC(=O)COCCOCCNC(=O)CCCCCCCCCCCCCCCCC(=O)O)C(=O)NCC(=O)N[C@@H](CCC(=O)O)C(N)=O)C(C)C
B6: [Aib^8,Glu^30,His^31,Gln^34,Lys^36] GLP-1(7-37)yl-Glu^38-peptide amide (peptide)
peptide: B5 peptide
HELM: PEPTIDE1{H.[Aib].E.G.T.F.T.S.D.V.S.S.Y.L.E.G.Q.A.A.K.E.F.I.E.H.L.V.Q.G.K.G.E.[am]}$$$$V2.0; N-terminus assumed
SMILES: CC[C@H](C)[C@H](NC(=O)[C@H](Cc1ccccc1)NC(=O)[C@H](CCC(=O)O)NC(=O)[C@H](CCCCN)NC(=O)[C@H](C)NC(=O)[C@H](C)NC(=O)[C@H](CCC(N)=O)NC(=O)CNC(=O)[C@H](CCC(=O)O)NC(=O)[C@H](CC(C)C)NC(=O)[C@H](Cc1ccc(O)cc1)NC(=O)[C@H](CO)NC(=O)[C@H](CO)NC(=O)[C@@H](NC(=O)[C@H](CC(=O)O)NC(=O)[C@H](CO)NC(=O)[C@@H](NC(=O)[C@H](Cc1ccccc1)NC(=O)[C@@H](NC(=O)CNC(=O)[C@H](CCC(=O)O)NC(=O)C(C)(C)NC(=O)[C@@H](N)Cc1c[nH]cn1)[C@@H](C)O)[C@@H](C)O)C(C)C)C(=O)N[C@@H](CCC(=O)O)C(=O)N[C@@H](Cc1c[nH]cn1)C(=O)N[C@@H](CC(C)C)C(=O)N[C@H](C(=O)N[C@@H](CCC(N)=O)C(=O)NCC(=O)N[C@@H](CCCCN)C(=O)NCC(=O)N[C@@H](CCC(=O)O)C(N)=O)C(C)C
notes: unacylated analogue; also called (8Aib, 30E, 31H, 34Q, 36K, 38E)
B7: N^α([Aib^8,His^31,Gln^34]-GLP-1-(7-37)-peptidyl)-Lysine (peptide)
peptide: B5 peptide with E24A, K30R, E32K
modifications: Aib8 (GLP-1(7-37) numbering)
notes: unacylated analogue; also called (8Aib, 31H, 34Q, 38K)
B8: N^8-methyl, … (peptide)
peptide: H[NMeA]EGTFTSDVSSYLEGQAAK([AEEA-AEEA-γGlu-C18 diacid])EFIAHLVQGRG

Where a chain is given by its changes, count along the chain named. Numbered stars: 1 amine (or outer) side, 2 acyl side, 3 side chain; on linkers, the order of the positions; unused ones are H or OH. Square brackets hold non-standard residues; d marks the D form. Side chains are listed from the residue outwards. Ends that are not written are not given here. * marks the point of attachment. X1 = 4‑(16-(1H-tetrazol-5-yl)hexadecanoylsulfamoyl)butanoyl, O=C(CCCCCCCCCCCCCCCc1nn[nH]n1)NS(=O)(=O)CCCC(=O)*; C18 diacid = O=C(O)CCCCCCCCCCCCCCCCC(=O)*; C16 diacid = O=C(O)CCCCCCCCCCCCCCC(=O)*; γGlu = O=C(O)[C@H](CCC(=O)[*:2])N[*:1]; NMeA = CN[C@@H](C)C(=O)O; AEEA = NCCOCCOCC(=O)O Where only a bound is given, the exact number is not on record here.

In one assay the target is T1, human GLP-1 receptor (human, UniProt P43220 24-463).
T1 construct: whole, on cells; Used as purified plasma membranes of the transfected hamster cell line, not as intact cells; also called hGLP-1
Put plainly: SPA, displacement of 125I-GLP-1(7-36)NH2 from hGLP-1R membranes, 2.0% HSA. Here is the method: (§1) 25 ul (micro liter) of test compounds were added to Optiplate. HSA ("high albumin" experiment containing 2% HSA), or buffer ("low albumin" experiment containing 0.005% HSA), was added (50 ul). 5-10 ug protein/sample was added (50 ul) corresponding to 0.1-0.2 mg protein/ml (to be preferably optimised for each membrane preparation). SPA-particles (Wheatgerm agglutinin SPA beads, Perkin Elmer, #RPNQ0001) were added in an amount of 0.5 mg/well (50 ul). […] The plates were sealed with PlateSealer and incubated for 120 minutes at 30° C. while shaking. The plates were centrifuged (1500 rpm, 10 min) and counted in Topcounter.
In general terms: Loss of bound radioactivity is the signal in a displacement assay; it reports binding, not function.
B1 yielded an IC50 of at most 1000 nM.
B2 yielded an IC50 of at most 1000 nM.
Same read-out and setting: next, B3: at most 1000 nM.
Turning to B4, the IC50 is at most 1000 nM.
Still for that read-out and setting: next, B5: at most 1000 nM.
On the same count and under the same terms, in the case of B6 it was at most 1000 nM; in that of B7, at most 1000 nM.
Still for that read-out and setting: in the case of B8 it was at most 1000 nM.

A further assay addresses T1, human GLP-1 receptor. As to the kind of experiment: SPA, displacement of 125I-GLP-1(7-36)NH2 from hGLP-1R membranes, 0.005% HSA. The procedure: as §1
B1 came in with an IC50 below 600 nM.
Regarding B2, the IC50 was below 600 nM.
Still for that read-out and setting: in the case of B3 it was below 600 nM.
Still for that read-out and setting: next, B4: below 600 nM.
Molecule B5 gave an IC50 below 600 nM.
On the same count and under the same terms, next, B6: below 600 nM; B7: below 600 nM; B8: below 600 nM.
